Measurements published in article PMC3173129.

Target: Orai3 N-terminal peptide aa 52–65 (human) (UniProt Q9BRQ5)
Assay: SPR

Work on “Calmodulin from bovine testes (from UniProt P62157 1-149) (natural protein)” yielded a response (resonance units) (resonance units) of 207.
